Data reported in the supplement of paper PMC10567573.

B1: PBXIP1 (parent)
chain: FGEDGIFRHDRLRFRDFVDALEDS
B2: ATL3 (parent)
chain: YGLQGGMAFLDKRLQVKEHQHEEI

Variants of: B1
Assay: protein stability index of a GFP-peptide fusion (GPS, HEK-293T) (PSI 1-6); higher = more stable
Conditions: c terminus: a fixed tail appended
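Note: lentivirally expressed fusions sorted by FACS into six bins by GFP to DsRed ratio, PSI derived from sequencing read proportions per bin multiplied by bin number.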

Protein stability index of substitutions, site by site:
R8: A 3.29, C 2.51, D 3.74, E 4.23, F 1.95, G 2.93, H 2.65, I 3.09, K 2.23, L 2.55, M 3.06, N 3.16, P 3.8, Q 2.97, S 2.85, T 2.48, V 2.93, W 2.05, Y 2.46
H9: A 2.84, C 2.47, D 3.76, E 3.5, F 2.26, G 3.19, I 2.41, K 2.08, L 2.4, M 2.73, N 3.28, P 2.88, Q 2.42, R 2.39, S 2.79, T 2.4, V 2.82, W 2.04, Y 2.46
D10: A 1.96, C 1.85, E 2.63, F 2.16, G 2.33, H 2.39, I 1.67, K 2.04, L 2.16, M 2.19, N 2.83, P 1.85, Q 1.86, R 2.15, S 2.06, T 2.07, V 1.52, W 1.74, Y 1.79
R11: A 2.57, C 2.73, D 3.95, E 3.36, F 2.5, G 3.12, H 2.83, I 2.43, K 2.57, L 2.33, M 2.44, N 3.09, P 3.13, Q 3.29, S 2.73, T 3.02, V 2.46, W 2.49, Y 2.35
L12: A 2.88, C 2.74, D 3.38, E 3.51, F 2.56, G 3.31, H 2.73, I 3.05, K 2.46, M 2.51, N 3.14, P 2.43, Q 3.17, R 2.58, S 2.55, T 2.44, V 2.65, W 2.7, Y 2.71
R13: A 3.13, C 2.73, D 3.29, E 4.02, F 2.25, G 2.9, H 2.57, I 2.26, K 2.85, L 2.71, M 2.79, N 3.56, P 3.35, Q 3.74, S 2.92, T 3.26, V 2.72, W 1.99, Y 2.32
F14: A 3.43, C 1.99, D 3.84, E 3.86, G 3.67, H 2.87, I 2.86, K 3.38, L 2.96, M 3.23, N 3.71, P 3.01, Q 3.46, R 3.37, S 3.81, T 3.62, V 3.05, W 2.2, Y 2.57
R15: A 2.38, C 2.79, D 2.87, E 3.61, F 2.68, G 3.41, H 2.48, I 2.23, K 2.9, L 2.48, M 2.54, N 3.38, P 3.36, Q 3.06, S 2.54, T 2.44, V 2.02, W 1.97, Y 2.22
D16: A 2.41, C 3.01, E 3.17, F 2.12, G 1.97, H 2.09, I 2.06, K 1.99, L 1.55, M 1.78, N 1.89, P 2.27, Q 2.42, R 2.36, S 2.23, T 2.08, V 2.43, W 1.85, Y 1.88
F17: A 3.46, C 3.12, D 3.68, E 3.98, G 3.57, H 3.25, I 3.19, K 3.09, L 2.77, M 3.38, N 3.55, P 3.44, Q 3.58, R 3.69, S 3.69, T 3.61, V 3.38, W 2.79, Y 2.97
V18: A 2.73, C 3.3, D 3.1, E 3.5, F 2.45, G 3.16, H 2.53, I 2.17, K 3.13, L 3.32, M 2.87, N 3.14, P 2.94, Q 3.49, R 3.05, S 3.11, T 3.27, W 2.07, Y 2.4
D19: A 2.59, C 2.47, E 2.6, F 2.22, G 2.37, H 2.9, I 1.91, K 2.9, L 1.61, M 2.56, N 2.65, P 2.53, Q 2.49, R 2.48, S 2.4, T 2.61, V 1.91, W 2.18, Y 2.35
A20: C 3.05, D 3.23, E 3.25, F 2.38, G 3.41, H 2.42, I 2.28, K 3.6, L 2.09, M 2.13, N 2.78, P 3.06, Q 2.95, R 3.01, S 3.18, T 2.21, V 2.49, W 2.46, Y 2.11
L21: A 3.32, C 3.48, D 3.68, E 3.67, F 2.73, G 2.97, H 3, I 3.07, K 3.3, M 3.12, N 3.73, P 3.65, Q 3.57, R 3.01, S 3.24, T 3.13, V 2.94, W 2.57, Y 3.18
E22: A 2, C 1.93, D 2.26, F 1.65, G 2.05, H 2.37, I 1.76, K 2.08, L 2.97, M 1.89, N 2.56, P 2.81, Q 2.24, R 2.38, S 2.71, T 2.08, V 2.2, W 1.97, Y 2.11
D23: A 2.22, C 2.21, E 2.61, F 1.92, G 3.02, H 2.34, I 1.93, K 2.23, L 2.42, M 2.32, N 2.94, P 2.35, Q 2.82, R 1.98, S 2.22, T 2.55, V 2.29, W 1.84, Y 2.62
S24: A 2.21, C 3.48, D 3.5, E 2.24, F 1.8, G 2.32, H 2.66, I 2.29, K 3.08, L 2.32, M 2.2, N 3.15, P 2.51, Q 2.74, R 2.76, T 2.85, V 2.43, W 1.93, Y 1.78

Variants of: B2
Assay: as above
Conditions: c terminus: a fixed tail appended

Protein stability index, by site and new letter:
Y1: A 4.57, C 2.19, D 5.03, E 4.35, F 2.51, G 4.73, H 3.51, I 4.07, K 4.26, L 3.38, M 4.29
